Reference: paper doi:10.1101/2025.08.21.671446 (bioRxiv, 2025)
Where “and” joins values, the source holds several entries; their conditions need not be identical. Equal entries are not always repeated. Where two headings read alike, the source gives them in different places.

Key:
SEC [1] = molecular target: the molecule itself; assay: SEC
SEC [2] = molecular target: the molecule itself; assay: SEC; remark: listed apart in the source
MoyR [3] = molecular target: T1, MoyR (Mycobacterium tuberculosis H37Rv, UniProt O86331 1-269); assay: EMSA
T1 sequence: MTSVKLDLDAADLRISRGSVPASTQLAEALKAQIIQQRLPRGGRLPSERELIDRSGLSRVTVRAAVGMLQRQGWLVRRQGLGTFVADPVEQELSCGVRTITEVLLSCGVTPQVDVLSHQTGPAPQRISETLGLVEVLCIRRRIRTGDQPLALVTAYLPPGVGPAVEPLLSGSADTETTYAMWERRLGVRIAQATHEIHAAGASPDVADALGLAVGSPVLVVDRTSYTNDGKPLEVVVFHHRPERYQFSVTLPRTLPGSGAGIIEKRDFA

MoyR [4] = molecular target: T1, MoyR; assay: EMSA; remark: listed apart in the source
MoyR [5] = molecular target: T1, MoyR; assay: EMSA; remark: listed apart in the source

B1: MoyR (Rv0792c), GntR family (HutC subfamily) monooxygenase regulator of Mycobacterium tuberculosis (natural protein)
chain: MTSVKLDLDAADLRISRGSVPASTQLAEALKAQIIQQRLPRGGRLPSERELIDRSGLSRVTVRAAVGMLQRQGWLVRRQGLGTFVADPVEQELSCGVRTITEVLLSCGVTPQVDVLSHQTGPAPQRISETLGLVEVLCIRRRIRTGDQPLALVTAYLPPGVGPAVEPLLSGSADTETTYAMWERRLGVRIAQATHEIHAAGASPDVADALGLAVGSPVLVVDRTSYTNDGKPLEVVVFHHRPERYQFSVTLPRTLPGSGAGIIEKRDFA
**Q.** For B1, which “stoichiometry N” value (SEC [1]) is on record?
**A.** 2

**Q.** And the “stoichiometry N” value (SEC [2])?
**A.** 4 and 6

B2: moyOf4 (dsDNA)
DNA 1: TAGCAGCGGAAGAAGGTCA
DNA 2: TGACCTTCTTCCGCTGCTA
**Q.** Does B2 bind (MoyR [3])?
**A.** no binding

B3: moyOf6 (20 bp) (dsDNA)
DNA 1: AGCTTGACAGATGTCATAAG
DNA 2: CTTATGACATCTGTCAAGCT
**Q.** Does B3 bind (MoyR [4])?
**A.** no binding

B4: moyOf1 (47 bp) (dsDNA)
DNA 1: AGCTTGACAGATGTCATAAGACGTATTAAAACGTCTTATACTCACCA
DNA 2: TGGTGAGTATAAGACGTTTTAATACGTCTTATGACATCTGTCAAGCT
**Q.** How did the Kd (MoyR [5]) turn out when B4 was run?
**A.** 16.6 nM
